Key:
[1] = target: T1, 4H3907-bA; experiment: two-hybrid library CCNG1;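 also: natural log of median RNA to DNA barcode read ratio; higher means stronger binding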
T1 chain: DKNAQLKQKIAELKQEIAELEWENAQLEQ

[2] = target: T2, 4H4038-bA; experiment: two-hybrid library CCNG1;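 also: natural log of median RNA to DNA barcode read ratio; higher means stronger binding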
T2 chain: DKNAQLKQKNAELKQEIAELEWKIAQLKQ

[3] = target: T3, 4H1406-bA; experiment: two-hybrid library CCNG1;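 also: natural log of median RNA to DNA barcode read ratio; higher means stronger binding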
T3 chain: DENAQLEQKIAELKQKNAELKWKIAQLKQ

[4] = target: T4, 4H3601-bA; experiment: two-hybrid library CCNG1;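 also: natural log of median RNA to DNA barcode read ratio; higher means stronger binding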
T4 chain: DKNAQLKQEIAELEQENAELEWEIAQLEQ

[5] = target: T5, 4H3592-bA; experiment: two-hybrid library CCNG1;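 also: natural log of median RNA to DNA barcode read ratio; higher means stronger binding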
T5 chain: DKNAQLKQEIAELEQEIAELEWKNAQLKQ

[6] = target: T6, 4H2134-bA; experiment: two-hybrid library CCNG1;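 also: natural log of median RNA to DNA barcode read ratio; higher means stronger binding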
T6 chain: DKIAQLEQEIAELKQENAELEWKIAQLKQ

[7] = target: T7, 4H3381-AA; experiment: two-hybrid library CCmax; details: mean of both orientations
T7 chain: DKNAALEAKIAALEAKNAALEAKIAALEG

[8] = target: T8, 4H2611-AA; experiment: two-hybrid library CCmax; details: mean of both orientations
T8 chain: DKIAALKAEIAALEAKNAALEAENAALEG

[9] = target: T9, 4H2504-AA; experiment: two-hybrid library CCmax; details: mean of both orientations
T9 chain: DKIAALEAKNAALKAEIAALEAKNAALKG

[10] = target: T10, 4H688-AA; experiment: two-hybrid library CCmax; details: mean of both orientations
T10 chain: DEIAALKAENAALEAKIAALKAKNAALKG

[11] = target: T11, 4H3340-AA; experiment: two-hybrid library CCmax; details: mean of both orientations
T11 chain: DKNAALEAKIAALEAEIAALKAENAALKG

[12] = target: T12, 4H3001-AA; experiment: two-hybrid library CCmax; details: mean of both orientations
T12 chain: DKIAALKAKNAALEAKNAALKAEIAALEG

[13] = target: T13, 4H249-AA; experiment: two-hybrid library CCmax; details: mean of both orientations
T13 chain: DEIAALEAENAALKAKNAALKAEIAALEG

[14] = target: T14, 4H963-AA; experiment: two-hybrid library CCmax; details: mean of both orientations
T14 chain: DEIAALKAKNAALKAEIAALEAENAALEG

[15] = target: T15, 4H2219-AA; experiment: two-hybrid library CCmax
T15 chain: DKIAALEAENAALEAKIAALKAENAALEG

[16] = target: T16, 4H2592-AA; experiment: two-hybrid library CCmax; details: mean of both orientations
T16 chain: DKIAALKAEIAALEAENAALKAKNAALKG

[17] = target: T17, 4H376-AA; experiment: two-hybrid library CCmax; details: mean of both orientations
T17 chain: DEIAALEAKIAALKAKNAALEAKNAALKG

[18] = target: T18, 4H406-AA; experiment: two-hybrid library CCmax; details: mean of both orientations
T18 chain: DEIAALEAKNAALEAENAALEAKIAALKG

[19] = target: T19, 4H347-AA; experiment: two-hybrid library CCmax; details: mean of both orientations
T19 chain: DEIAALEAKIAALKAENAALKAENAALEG

[20] = target: T20, 4H2774-AA; experiment: two-hybrid library CCmax; details: mean of both orientations
T20 chain: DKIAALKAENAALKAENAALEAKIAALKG

[21] = target: T21, 4H3493-AA; experiment: two-hybrid library CCmax
T21 chain: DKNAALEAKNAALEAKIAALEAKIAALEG

[22] = target: T22, 4H3632-bN; experiment: two-hybrid library CCNG1
T22 chain: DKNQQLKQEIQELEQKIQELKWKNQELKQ

[23] = target: T23, 4H496-bN; experiment: two-hybrid library CCNG1
T23 chain: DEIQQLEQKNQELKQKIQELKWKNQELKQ

[24] = target: T24, 4H2691-bN; experiment: two-hybrid library CCNG1
T24 chain: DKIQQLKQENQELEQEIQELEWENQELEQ

[25] = target: T25, 4H342-bN; experiment: two-hybrid library CCNG1
T25 chain: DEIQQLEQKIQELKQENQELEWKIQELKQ

[26] = target: T26, 4H3070-bN; experiment: two-hybrid library CCNG1
T26 chain: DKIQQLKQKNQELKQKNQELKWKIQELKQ

[27] = target: T27, 4H3354-AA; experiment: two-hybrid library CCmax; details: mean of both orientations
T27 chain: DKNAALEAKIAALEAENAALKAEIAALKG

[28] = target: T28, 4H3427-AA; experiment: two-hybrid library CCmax; details: mean of both orientations
T28 chain: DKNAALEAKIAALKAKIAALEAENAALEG

[29] = target: T29, 4H3782-AA; experiment: two-hybrid library CCmax; details: mean of both orientations
T29 chain: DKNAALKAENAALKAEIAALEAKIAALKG

[30] = target: T30, 4H3855-AA; experiment: two-hybrid library CCmax; details: mean of both orientations
T30 chain: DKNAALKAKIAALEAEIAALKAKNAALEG

[31] = target: T31, 4H883-AA; experiment: two-hybrid library CCmax; details: mean of both orientations
T31 chain: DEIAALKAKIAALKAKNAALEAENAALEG

[32] = target: T32, 4H4001-AA; experiment: two-hybrid library CCmax; details: mean of both orientations
T32 chain: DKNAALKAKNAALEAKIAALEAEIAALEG

[33] = target: T33, 4H918-AA; experiment: two-hybrid library CCmax; details: mean of both orientations
T33 chain: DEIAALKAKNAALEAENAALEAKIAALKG

[34] = target: T34, 4H797-AA; experiment: two-hybrid library CCmax; details: mean of both orientations
T34 chain: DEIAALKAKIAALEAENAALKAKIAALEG

[35] = target: T35, 4H3112-AA; experiment: two-hybrid library CCmax; details: mean of both orientations
T35 chain: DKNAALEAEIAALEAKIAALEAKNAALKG

[36] = target: T36, 4H967-AA; experiment: two-hybrid library CCmax; details: mean of both orientations
T36 chain: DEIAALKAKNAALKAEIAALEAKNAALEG

[37] = target: T37, 4H953-AA; experiment: two-hybrid library CCmax; details: mean of both orientations
T37 chain: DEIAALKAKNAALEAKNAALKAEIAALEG

[38] = target: T38, 4H2442-AA; experiment: two-hybrid library CCmax
T38 chain: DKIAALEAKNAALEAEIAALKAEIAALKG

[39] = target: T39, 4H687-AA; experiment: two-hybrid library CCmax; details: mean of both orientations
T39 chain: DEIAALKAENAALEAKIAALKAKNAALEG

[40] = target: T40, 4H717-AA; experiment: two-hybrid library CCmax; details: mean of both orientations
T40 chain: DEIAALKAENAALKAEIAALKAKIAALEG

[41] = target: T41, 4H568-AA; experiment: two-hybrid library CCmax; details: mean of both orientations
T41 chain: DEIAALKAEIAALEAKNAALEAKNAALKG

[42] = target: T42, P8SH; experiment: two-hybrid library CCNG1
T42 chain: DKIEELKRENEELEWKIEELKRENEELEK

[43] = target: T43, P7SH; experiment: two-hybrid library CCNG1
T43 chain: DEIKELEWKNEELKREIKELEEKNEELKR

[44] = target: T44, P6SH; experiment: two-hybrid library CCNG1
T44 chain: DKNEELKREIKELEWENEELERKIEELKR

[45] = target: T45, O8-bH; experiment: two-hybrid library CCNG1
T45 chain: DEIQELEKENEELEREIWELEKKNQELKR

[46] = target: T46, O3-bH; experiment: two-hybrid library CCNG1
T46 chain: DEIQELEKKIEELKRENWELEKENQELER

[47] = target: T47, O5-bH; experiment: two-hybrid library CCNG1
T47 chain: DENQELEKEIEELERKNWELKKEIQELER

[48] = target: T48, O12-bH; experiment: two-hybrid library CCNG1
T48 chain: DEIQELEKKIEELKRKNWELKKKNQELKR

[49] = target: T49, O6-bH; experiment: two-hybrid library CCNG1
T49 chain: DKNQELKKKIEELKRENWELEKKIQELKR

[50] = target: T50, O13-bH; experiment: two-hybrid library CCNG1
T50 chain: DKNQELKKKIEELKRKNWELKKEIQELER

[51] = target: T51, O7-bH; experiment: two-hybrid library CCNG1
T51 chain: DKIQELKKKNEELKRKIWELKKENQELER

[52] = target: T52, O16-bH; experiment: two-hybrid library CCNG1
T52 chain: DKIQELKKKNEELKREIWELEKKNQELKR

[53] = target: T53, O14-bH; experiment: two-hybrid library CCNG1
T53 chain: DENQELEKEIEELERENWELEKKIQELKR

[54] = target: T54, O2-bH; experiment: two-hybrid library CCNG1
T54 chain: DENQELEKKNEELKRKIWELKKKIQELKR

[55] = target: T55, O4-bH; experiment: two-hybrid library CCNG1
T55 chain: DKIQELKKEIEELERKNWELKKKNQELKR

[56] = target: T56, O9-bH; experiment: two-hybrid library CCNG1
T56 chain: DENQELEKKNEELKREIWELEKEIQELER

[57] = target: T57, O15-bH; experiment: two-hybrid library CCNG1
T57 chain: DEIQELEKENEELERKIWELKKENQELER

[58] = target: T58, 4H470-bN; experiment: two-hybrid library CCNG1
T58 chain: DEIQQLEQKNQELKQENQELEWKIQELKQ

[59] = target: T59, 4H3112-bN; experiment: two-hybrid library CCNG1
T59 chain: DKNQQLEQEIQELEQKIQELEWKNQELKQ

[60] = target: T60, 4H363-bN; experiment: two-hybrid library CCNG1
T60 chain: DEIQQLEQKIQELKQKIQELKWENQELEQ

[61] = target: T61, 4H344-bN; experiment: two-hybrid library CCNG1
T61 chain: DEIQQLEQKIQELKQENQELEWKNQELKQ

[62] = target: T62, 4H3907-bN; experiment: two-hybrid library CCNG1
T62 chain: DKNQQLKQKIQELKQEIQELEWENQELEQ

[63] = target: T63, 4H2745-bN; experiment: two-hybrid library CCNG1
T63 chain: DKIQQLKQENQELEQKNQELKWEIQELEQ

[64] = target: T64, 4H2619-bN; experiment: two-hybrid library CCNG1
T64 chain: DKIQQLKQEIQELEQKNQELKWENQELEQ

[65] = target: T65, 4H3961-bN; experiment: two-hybrid library CCNG1
T65 chain: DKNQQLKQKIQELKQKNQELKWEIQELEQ

Binder: DENAQLEQKIAELKQKNAELKWKIAQLKQ [4H1406-bA]
- interaction score [1]: 0.571
- interaction score [2]: -0.125
- interaction score [3]: -0.836
- interaction score [4]: 1.83
- interaction score [5]: 0.233
- interaction score [6]: 1.62

Binder: DKIAALEAENAALEAKIAALKAENAALEG [4H2219-AA]
- interaction score [7]: -1.13
- interaction score [8]: -1.33
- interaction score [9]: 2.21
- interaction score [10]: -0.493
- interaction score [11]: -1.39
- interaction score [12]: -0.483
- interaction score [13]: -1.35
- interaction score [14]: 0.45
- interaction score [15]: -1.21
- interaction score [16]: -0.491
- interaction score [17]: -1.64
- interaction score [18]: -1.81
- interaction score [19]: -1.36
- interaction score [20]: -0.727
- interaction score [21]: -1.56

Binder: DKIQQLKQENQELEQEIQELEWENQELEQ [4H2691-bN]
- interaction score [22]: -1.21
- interaction score [23]: 1.01
- interaction score [24]: -0.448
- interaction score [25]: -0.0194
- interaction score [26]: -1.24

Binder: DKIAALEAKNAALEAEIAALKAEIAALKG [4H2442-AA]
- interaction score [27]: -1.37
- interaction score [28]: -1.52
- interaction score [29]: -1.14
- interaction score [30]: -1.56
- interaction score [31]: -1.82
- interaction score [32]: -2.06
- interaction score [33]: -1.29
- interaction score [34]: -1.52
- interaction score [35]: -1.4
- interaction score [36]: -2.2
- interaction score [37]: -1.67
- interaction score [38]: 1.97
- interaction score [39]: -1.85
- interaction score [40]: -1.4
- interaction score [41]: -1.38

Binder: DKNEELKREIKELEWENEELERKIEELKR [P6SH]
- interaction score [42]: 0.565
- interaction score [43]: 0.762
- interaction score [44]: 0.574

Binder: DEIQELEKKIEELKRKNWELKKKNQELKR [O12-bH]
- interaction score [45]: 1.12
- interaction score [46]: 1.56
- interaction score [47]: -1.26
- interaction score [48]: 0.775
- interaction score [49]: 0.619
- interaction score [50]: 0.332
- interaction score [51]: -0.37
- interaction score [52]: -0.436
- interaction score [53]: -1.38
- interaction score [54]: -1.26
- interaction score [55]: 1.12
- interaction score [56]: 0.102
- interaction score [57]: 0.483

Binder: DKIQQLKQEIQELEQKNQELKWENQELEQ [4H2619-bN]
- interaction score [58]: -0.608
- interaction score [59]: 0.149
- interaction score [60]: -1.48
- interaction score [22]: -0.529
- interaction score [61]: 0.255
- interaction score [62]: -0.483
- interaction score [63]: -0.673
- interaction score [64]: 0.209
- interaction score [23]: -1.66
- interaction score [24]: -1.49
- interaction score [65]: -1.65
- interaction score [25]: 1.23
- interaction score [26]: -0.245

From PMC10397247
